From the supplement of paper PMC10567573

B1: ZER1 (parent)
chain: KEMARKVIEHCSNFKEENMDTSR
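Note: lentivirally expressed fusions sorted by FACS into six bins by GFP to DsRed ratio, PSI derived from sequencing read proportions per bin multiplied by bin number.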

Variants of: B1
Experiment: protein stability index of a GFP-peptide fusion (GPS, HEK-293T) (PSI 1-6); higher = more stable
Conditions: c terminus: native
KEMARKVGEHCSNFKEENMDTSR [I8G] gave a protein stability index of 4.64. Work on KEMARKVQEHCSNFKEENMDTSR [I8Q] yielded a protein stability index of 4.67. Variant KEMARKVCEHCSNFKEENMDTSR [I8C] has a protein stability index of 4.42. KEMARKVMEHCSNFKEENMDTSR [I8M] showed a protein stability index of 3.51. Variant KEMARKVWEHCSNFKEENMDTSR [I8W] has a protein stability index of 1.86. Variant KEMARKVTEHCSNFKEENMDTSR [I8T] has a protein stability index of 4.4. For KEMARKVREHCSNFKEENMDTSR [I8R], the protein stability index was 4.33. For KPMARKVIEHCSNFKEENMDTSR [E2P], the protein stability index was 4.13. For KDMARKVIEHCSNFKEENMDTSR [E2D], the protein stability index was 3.25. Work on KFMARKVIEHCSNFKEENMDTSR [E2F] yielded a protein stability index of 2.11. KVMARKVIEHCSNFKEENMDTSR [E2V] showed a protein stability index of 3.52. For KKMARKVIEHCSNFKEENMDTSR [E2K], the protein stability index was 3.44. KHMARKVIEHCSNFKEENMDTSR [E2H] showed a protein stability index of 3.12. Variant KIMARKVIEHCSNFKEENMDTSR [E2I] has a protein stability index of 3.27. Variant KEMARKVIEHCSNFKHENMDTSR [E16H] has a protein stability index of 2.79. Variant KEMARKVIEHCSNFKKENMDTSR [E16K] has a protein stability index of 3.85. KEMARKVIEHCSNFKVENMDTSR [E16V] showed a protein stability index of 3.43. KEMARKVIEHCSNFKRENMDTSR [E16R] gave a protein stability index of 2.98. KEMARKVIEHCSNFKIENMDTSR [E16I] showed a protein stability index of 2.45. KEMARKVIEHCSNFKDENMDTSR [E16D] showed a protein stability index of 3.07. Work on KEMARKVIEHCSNFKYENMDTSR [E16Y] yielded a protein stability index of 2.37. For KEMARKVIEHCSNFKWENMDTSR [E16W], the protein stability index was 2.16. With KECARKVIEHCSNFKEENMDTSR [M3C] the protein stability index was 4.08. In the case of KEWARKVIEHCSNFKEENMDTSR [M3W], the protein stability index is reported as 2.28. With KEFARKVIEHCSNFKEENMDTSR [M3F] the protein stability index was 1.72. KEQARKVIEHCSNFKEENMDTSR [M3Q] gave a protein stability index of 4.45. In the case of KEDARKVIEHCSNFKEENMDTSR [M3D], the protein stability index is reported as 4.86. For KETARKVIEHCSNFKEENMDTSR [M3T], the protein stability index was 4.3. Work on KELARKVIEHCSNFKEENMDTSR [M3L] yielded a protein stability index of 3.52. For KEAARKVIEHCSNFKEENMDTSR [M3A], the protein stability index was 4.49. Variant QEMARKVIEHCSNFKEENMDTSR [K1Q] has a protein stability index of 4.3. For AEMARKVIEHCSNFKEENMDTSR [K1A], the protein stability index was 3.7. For SEMARKVIEHCSNFKEENMDTSR [K1S], the protein stability index was 3.87. TEMARKVIEHCSNFKEENMDTSR [K1T] gave a protein stability index of 3.65. NEMARKVIEHCSNFKEENMDTSR [K1N] showed a protein stability index of 4.24. DEMARKVIEHCSNFKEENMDTSR [K1D] showed a protein stability index of 4.45. Work on FEMARKVIEHCSNFKEENMDTSR [K1F] yielded a protein stability index of 2.86. In the case of MEMARKVIEHCSNFKEENMDTSR [K1M], the protein stability index is reported as 2.75. CEMARKVIEHCSNFKEENMDTSR [K1C] showed a protein stability index of 2.6. Variant YEMARKVIEHCSNFKEENMDTSR [K1Y] has a protein stability index of 3.31. KEMARKVIEHCSLFKEENMDTSR [N13L] showed a protein stability index of 1.92. In the case of KEMARKVIEHCSVFKEENMDTSR [N13V], the protein stability index is reported as 3.05. Variant KEMARKVIEHCSEFKEENMDTSR [N13E] has a protein stability index of 3.69. In the case of KEMARKVIEHCSAFKEENMDTSR [N13A], the protein stability index is reported as 3.28. In the case of KEMARKVIEHCSGFKEENMDTSR [N13G], the protein stability index is reported as 3.5. Work on KEMARKVIEHCSDFKEENMDTSR [N13D] yielded a protein stability index of 3.61. KEMARKVIEHCSKFKEENMDTSR [N13K] showed a protein stability index of 3.85. Work on KEMARKVIEHCSYFKEENMDTSR [N13Y] yielded a protein stability index of 3.15. KEMARKVIEHCSFFKEENMDTSR [N13F] gave a protein stability index of 2.49. In the case of KEMARKVIEHCSHFKEENMDTSR [N13H], the protein stability index is reported as 3.53. KEMARKVIEHISNFKEENMDTSR [C11I] showed a protein stability index of 2.02. Work on KEMARKVIEHNSNFKEENMDTSR [C11N] yielded a protein stability index of 4.26. Variant KEMARKVIEHESNFKEENMDTSR [C11E] has a protein stability index of 4.45. For KEMARKVIEHRSNFKEENMDTSR [C11R], the protein stability index was 4.48. With KEMARKVIEHTSNFKEENMDTSR [C11T] the protein stability index was 4.62. For KEMARKVIEHVSNFKEENMDTSR [C11V], the protein stability index was 2.84. KEMARKVIEHPSNFKEENMDTSR [C11P] gave a protein stability index of 4.83. With KEMARKVIEHQSNFKEENMDTSR [C11Q] the protein stability index was 4.43. With KEMARKVIEHHSNFKEENMDTSR [C11H] the protein stability index was 3.87. KEMARKVIEHASNFKEENMDTSR [C11A] gave a protein stability index of 4.77. KEMARKVIEHMSNFKEENMDTSR [C11M] showed a protein stability index of 2.58. For KEMARKVIEHYSNFKEENMDTSR [C11Y], the protein stability index was 2.11. Work on KEMARKVIEHFSNFKEENMDTSR [C11F] yielded a protein stability index of 1.38. KEMARKVIETCSNFKEENMDTSR [H10T] gave a protein stability index of 3.98. KEMARKVIEGCSNFKEENMDTSR [H10G] showed a protein stability index of 4.56. KEMARKVIEKCSNFKEENMDTSR [H10K] gave a protein stability index of 4.78. KEMARKVIEMCSNFKEENMDTSR [H10M] gave a protein stability index of 1.81. Variant KEMARKVIENCSNFKEENMDTSR [H10N] has a protein stability index of 4.29. In the case of KEMARKVIEECSNFKEENMDTSR [H10E], the protein stability index is reported as 3.69. Work on KEMARKVIEFCSNFKEENMDTSR [H10F] yielded a protein stability index of 2.78. KEMARKVIECCSNFKEENMDTSR [H10C] gave a protein stability index of 3.1. KEMARKVIEQCSNFKEENMDTSR [H10Q] gave a protein stability index of 3.83. For KEMARKVICHCSNFKEENMDTSR [E9C], the protein stability index was 4.04. For KEMARKVIGHCSNFKEENMDTSR [E9G], the protein stability index was 4.29. With KEMARKVIIHCSNFKEENMDTSR [E9I] the protein stability index was 3.03. With KEMARKVIWHCSNFKEENMDTSR [E9W] the protein stability index was 1.55. With KEMARKVITHCSNFKEENMDTSR [E9T] the protein stability index was 4.35. In the case of KEMARKVIQHCSNFKEENMDTSR [E9Q], the protein stability index is reported as 4.08. Work on KEMARKVIFHCSNFKEENMDTSR [E9F] yielded a protein stability index of 2.13. For KEMARKVIEHCWNFKEENMDTSR [S12W], the protein stability index was 2.63. For KEMARKVIEHCDNFKEENMDTSR [S12D], the protein stability index was 4.24. Work on KEMARKVIEHCLNFKEENMDTSR [S12L] yielded a protein stability index of 2.45. Variant KEMARKVIEHCFNFKEENMDTSR [S12F] has a protein stability index of 2.77. In the case of KEMARKVIEHCENFKEENMDTSR [S12E], the protein stability index is reported as 3.85. Work on KEMARKVIEHCRNFKEENMDTSR [S12R] yielded a protein stability index of 3.25. Variant KEMARKVIEHCYNFKEENMDTSR [S12Y] has a protein stability index of 2.73. In the case of KEMARKVIEHCANFKEENMDTSR [S12A], the protein stability index is reported as 3.7. KEMARKVIEHCHNFKEENMDTSR [S12H] gave a protein stability index of 3.66. KEMARKVIEHCCNFKEENMDTSR [S12C] gave a protein stability index of 2.98. With KEMARKVIEHCINFKEENMDTSR [S12I] the protein stability index was 2.56. In the case of KEMARKVIEHCSNFKEETMDTSR [N18T], the protein stability index is reported as 3.45. With KEMARKVIEHCSNFKEEKMDTSR [N18K] the protein stability index was 2.99. Work on KEMARKVIEHCSNFKEEAMDTSR [N18A] yielded a protein stability index of 3.34. In the case of KEMARKVIEHCSNFKEEWMDTSR [N18W], the protein stability index is reported as 3.6. In the case of KEMARKVIEHCSNFKEEHMDTSR [N18H], the protein stability index is reported as 3.47. For KEMARKVIEHCSNFKEEGMDTSR [N18G], the protein stability index was 4.02. Work on KEMARKVIEHCSNFKEEFMDTSR [N18F] yielded a protein stability index of 3.07.
